Reference: patent US20170037092A1

Target: HLA-A*02:01 (human)
Assay: UV-ligand exchange ELISA

For SLTETIEGV (modifications not checked) […], which peptide exchange yield is on record?
The peptide exchange yield was 20 to 50%.
